Biological target: HuCD7-TR (human CD7 containing an internal deletion of the 36 amino acid tandem repeat) (human) (UniProt P09564)
Assay: HuK12-Fc on transfected COS-1 cells, 125I anti-human Fc, phosphorimager

Chain of HuCD7-TR (human CD7 containing an internal deletion of the 36 amino acid tandem repeat) (human) (P09564 other isoform, or with tags, fused parts or gaps limits assumed): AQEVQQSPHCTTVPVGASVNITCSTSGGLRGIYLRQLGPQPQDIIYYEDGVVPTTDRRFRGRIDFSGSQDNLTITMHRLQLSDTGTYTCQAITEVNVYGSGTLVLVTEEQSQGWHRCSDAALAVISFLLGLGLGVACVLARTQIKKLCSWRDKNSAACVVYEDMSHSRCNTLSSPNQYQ

B1: human K12-Fc fusion protein (extracellular domain of human K12 fused to the Fc portion of human IgG1) (Fc fusion, not shown: a dimerising Fc or GST)
chain: QNEGWDSPICTEGVVSVSWGENTVMSCNISNAFSHVNIKLRAHGQESAIFNEVAPGYFSRDGWQLQVQGGVAQLVIKGARDSHAGLYMWHLVGHQRNNRQVTLEVSGAEPQSAPDTG
  fold less relative binding than to full length HuCD7: 10 fold
